Data taken from ChEMBL document CHEMBL1250451, “Mechanistic insights into a Ca2+-dependent family of alpha-mannosidases in a human gut symbiont” (Nat Chem Biol, 2010).

Legend:
Format in all cases: protein assay
[1] = substrate: O=[N+]([O-])c1ccc(O[C@H]2O[C@H](CO)[C@@H](O)[C@H](O)[C@@H]2O)cc1; assay: Ratio of Kcat to Km for Bacteroides thetaiotaomicron GH92 alpha-mannosidase GH92 alpha-mannosidase 3858 assessed as mannose release after 16 hrs by HPLC
[2] = substrate: O=[N+]([O-])c1ccc(O[C@H]2O[C@H](CO)[C@@H](O)[C@H](O)[C@@H]2O)cc1; assay: Activity of Bacteroides thetaiotaomicron GH92 alpha-mannosidase GH92 alpha-mannosidase 3858 assessed as mannose release after 16 hrs by HPLC
[3] = substrate: O=[N+]([O-])c1ccc(O[C@H]2O[C@H](CO)[C@@H](O)[C@H](O)[C@@H]2O)cc1; assay: Activity of Bacteroides thetaiotaomicron GH92 alpha-mannosidase GH92 alpha-mannosidase 3963 assessed as mannose release after 16 hrs by HPLC
[4] = substrate: O=[N+]([O-])c1ccc(O[C@H]2O[C@H](CO)[C@@H](O)[C@H](O)[C@@H]2O)cc1; assay: Ratio of Kcat to Km for Bacteroides thetaiotaomicron GH92 alpha-mannosidase GH92 alpha-mannosidase 3963 assessed as mannose release after 16 hrs by HPLC
[5] = substrate: O=[N+]([O-])c1ccc(O[C@H]2O[C@H](CO)[C@@H](O)[C@H](O)[C@@H]2O)cc1; assay: Ratio of Kcat to Km for Bacteroides thetaiotaomicron GH92 alpha-mannosidase 1032 assessed as mannose release after 16 hrs by HPLC
[6] = substrate: O=[N+]([O-])c1ccc(O[C@H]2O[C@H](CO)[C@@H](O)[C@H](O)[C@@H]2O)cc1; assay: Activity of Bacteroides thetaiotaomicron GH92 alpha-mannosidase 1032 assessed as mannose release after 16 hrs by HPLC
[7] = substrate: O=[N+]([O-])c1ccc(O[C@H]2O[C@H](CO)[C@@H](O)[C@H](O)[C@@H]2O)cc1; assay: Ratio of Kcat to Km for Bacteroides thetaiotaomicron GH92 alpha-mannosidase GH92 alpha-mannosidase 1878 assessed as mannose release after 16 hrs by HPLC
[8] = substrate: O=[N+]([O-])c1ccc(O[C@H]2O[C@H](CO)[C@@H](O)[C@H](O)[C@@H]2O)cc1; assay: Activity of Bacteroides thetaiotaomicron GH92 alpha-mannosidase GH92 alpha-mannosidase 1878 assessed as mannose release after 16 hrs by HPLC
[9] = substrate: O=[N+]([O-])c1ccc(O[C@H]2O[C@H](CO)[C@@H](O)[C@H](O)[C@@H]2O)cc1; assay: Activity of Bacteroides thetaiotaomicron GH92 alpha-mannosidase GH92 alpha-mannosidase 3130 assessed as mannose release after 16 hrs by HPLC
[10] = substrate: O=[N+]([O-])c1ccc(O[C@H]2O[C@H](CO)[C@@H](O)[C@H](O)[C@@H]2O)cc1; assay: Ratio of Kcat to Km for Bacteroides thetaiotaomicron GH92 alpha-mannosidase GH92 alpha-mannosidase 3130 assessed as mannose release after 16 hrs by HPLC
[11] = substrate: O=[N+]([O-])c1ccc(O[C@H]2O[C@H](CO)[C@@H](O)[C@H](O)[C@@H]2O)cc1; assay: Ratio of Kcat to Km for Bacteroides thetaiotaomicron GH92 alpha-mannosidase GH92 alpha-mannosidase 2948 assessed as mannose release after 16 hrs by HPLC

B1: Alpha-1,2-mannosidase (BT_3858) (Bacteroides thetaiotaomicron), Q8A113 (protein)
chain: MMMNRLNIKRTVGSCLMAMAFFSCTHTDQTPTKDFVDYVNPYIGNISHLLVPTYPTVHLPNSMLRVYPERGDYTSDRVNGLPVVVTSHRGSSAFNLSPVQGEVSRPIVSYSYDLENITPYSYSVYLDEADIQVEYAPSHQAGIYHISFGTEGDNALVVNTKNGKLVAEEKGVSGYQVIDNTPTKIYLYLETSQLPLRKGVLADGKVDMESKEGSAIALYYGSEKNLNLRYGISFISAEQAKKNLQRDITTYDVKAVADAGRRIWNKTLGKIVIEGGSEDEKEIFYTSLYRTYERMINLSEDGKYYSAFDGKIHEDGGVPFYTDDWIWDTYRATHPLRILIEPQKELDMIRSYIRMAEQSDRRWMPTFPEVTGDSHRMNGNHAVAVIWDAYCKGLKDFDLEAAYEACKGAITEKTLLPWLRCPLTELDKFYQEKGFFPALNPGEEETCKAVHSFERRQAVAVMLGNCYDNWCLAQIARTLNKTDDYKKFMRMSYTYRNVYNAETGFFHPKNKDGKFIEPFDYRYSGGQGARGYYGENNGWIYRWDVQHNPADLIALMGGQASFIERLNQTFNEPLGRSKFDFYHQLPDHTGNVGQFSMANEPCLHIPYLYNYAGQPWMTQKRIRVLLNQWFRNDLMGVPGDEDGGGMTAFVVFSMMGFYPVTPGSPTYNIGSPVFQSAKMEVGDGHYFEIIAENYAPDHKYIQSATLNGTPWNKPWFSHADIQNGGRLVLQMGDKPNKKWGIASDAVPPSSESLPE
kcat/Km [1]: 1.57 M⁻¹ s⁻¹
Km [2]: 270 µM
kcat [2]: 0.000417 s⁻¹

B2: Glycoside hydrolase family 92 (BT_3963) (Bacteroides thetaiotaomicron), Q8A0Q8 (protein)
chain: MNKMKKKVLMMTMAAVTLSAVAQQPVDYVNPIIGTNGMGHTFPGACTPFGWVQLSPDTDTIPHNVNGAYQKNAYEYCAGYQYRDKTIVGFSHTHLSGTGHSDLGDILLMPAVGDVKLNPGRADHPEEGYRSRFDHATEKATPGYYEVMLDDYGIKAQLTATQRTGVHKYTFPKGKDGHLILDLVHGIYNYDGKVLWANLRVENDTLLTGYRITNGWARTNYTYFAISLSQPIKDYGYKDKEKVLYNGFWRRFKLEKNFPEITGRKIVAYFNFETAKDPELVVKVALSAVSTEGAVKNLRAEASGKSFEQLAEAARTDWNNELDHFEIEGTPDQKAMFYTSLYHTMINPSVYMDVDGSYRGLDHNIHQAKGFTNYTIFSLWDTYRAEHPFLNLVKPERNADMVESMIKHEQQSVHGMLPIWSLMGNENWCMSGYHAVSVLADAITKGVFSNVDEALSAMVSTSTVPYYEGVADYMKLGYIPLDKSGTAASSTLEYAYDDWTIYQTALKAGNKEIADTYRKRALNYRNIYDTSIGFARPRYSDGTFKKEFDVLQTYGEGFIEGNSWNFSFHVPHDVFGMIDLMGGEKTFVQKLDELFSMHLPEKYYEHNEDITEECLVGGYVHGNEPSHHVPYLYAWTSQPWKTQYWLREILNKMYKNDINGLGGNDDCGQMSAWYLFSVMGFYPVCPGTDQYVLGAPYLPYLKLTLPNGKTLEIKAPGVSDKKRYVQSLKLNGESYDKMYITHEDILKGGVLEFKMSASPNKRRGVSVQDKPYSLTNGIN
Km [3]: 790 µM
kcat [3]: 0.00045 s⁻¹
kcat/Km [4]: 0.567 M⁻¹ s⁻¹

B3: Alpha-1,2-mannosidase family protein (BT_1032) (Bacteroides thetaiotaomicron), Q8A8Y5 (protein)
chain: MRRILLTCTLAFTLLPVFGGEGKAPPMDKEKSLLIDYVDPFIGTTNFGTTNPGAVCPNGMMSVVPFNVMGSADNTYDKDARWWSTPYEHTNCFFTGYSHVNLSGVGCPELGSLLLMPTTGELNVDYKEYGSKYKDEQASPGYYSNYLTKYNIKTEVSATPRTGIARFTFPKGESHILLNLGEGLTNESGAMLRRVSDSEIEGMKLLGTFCYNPQAVFPIYFVMRVNKVPATTGYWKKQRPMTGVEAEWDRDQGKYKLYTRYGKEIAGDDVGAYFTFETEEGEQVEVQMGVSFVSIENARLNLDKEQSGKNFEQVLSDARAQWNDDLSRITVEGGTDAQKTVFYTALYHLLIHPNVLQDVNGEYPAMESDQILTTKGTRYTVFSLWDTYRNVHQLLTLVYPERQMEMVRTMLDMYREHGWFPKWELYGRETLTMEGDPSIPVIVDTWMKGLRDFDVDLAYEAMYKSATLPGAENLMRPDNDDYMSKGYVPLREQYDNSVSHALEYYIADFALSRFADALGKKKDAEMFYKRSLGYKHYYSKEFGTFRPILPDGTFYSPFNPRQGENFEPNPGFHEGNSWNYTFYVPHDVYGLAKLMGGKKPFVNKLQMVFDEGLYDPANEPDIAYAHLFSYFKGEEWRTQKETQRLLDKYFTTKPDGIPGNDDTGTMSAWAIFNMIGFYPDCPGLPEYALTTPVFNKVTIRLDPKWYKENELVIESNRTGSETLYINKVLLDGKKFNKYRITHDELVHGKRLIFDLK
kcat/Km [5]: 3.5 M⁻¹ s⁻¹
Km [6]: 1700 µM
kcat [6]: 0.006 s⁻¹

B4: Alpha-1,2-mannosidase (BT_1878) (Bacteroides thetaiotaomicron), Q8A6K3 (protein)
chain: MIIMKRKSPVMAVALAGLFMYTSCSPTEQAETKDYTQYVNTFIGAADNGHTFPGACYPFGMIQTSPVTGAVGWRYCSEYTYQDSLIWGFTQTHLNGTGCMDLGDILVMPVTGTRARAWDAYRSHFPKDKEAATPGYYTVELSDPQVKAELTASIHAALHRYTYHKADSASLLIDLQHGPAWREEQYHSQVNSCEVNWEDAQTLAGHVNNTVWVDQDYFFVMKFNRPVIDSLYLPMGETEKGKRIIATFDLKPGDELMMKVALSTTSVEGAKKNLQAEIPDWNFDGVKLAAHDEWNSYLSRMDVEGTDDEKTNFYTCFYHALIQPNQISDVDGMYRNAADSIVKAGTGTFYSTFSLWDTYRAAHPFYTLMVPERVDDFVNSLIEQGEVQGFLPIWALWGKENFCMIGNHGVSVIAEAYRKGFRGFDAERAFNMVKKTQTVSHPLKSDWEVYTKYGYFPTDLTKAESVSSTLESVYDDYAAADMARRMGKEEDAAYFAKRADYYKNLFDSQTNFMRPRKADGTWKSPFNPSDVGHAESTGGDYTEGNAWQYTWHVQHDVPGLIALFGGEEPFLNKLDSLFTVKLETTQADVTGLIGQYAHGNEPSHHVTYLYALAGRPERTQELIREIFDTQYKNKPDGLCGNDDCGQMSAWYMFSAMGFYPVDPVSGDYVFGAPQLPKIVLHLADGKTFTVIAENLSKEHKYVDSITLNGEPYTKNTISHEDILKGGTLVYKMK
kcat/Km [7]: 1.48 M⁻¹ s⁻¹
Km [8]: 900 µM
kcat [8]: 0.00133 s⁻¹

B5: Alpha-1,2-mannosidase, putative (BT_3130) (Bacteroides thetaiotaomicron), Q8A325 (protein)
chain: MKKLLLSVCAFSLTLATLQAGEITKYVNPFIGTGAIDGGLSGNNYPGATSPFGMIQLSPDTSEAPNWGDASGYDYNRNTIFGFSHTRLSGTGASDLIDITLMPTSSGRTSSAFTHDEEKARPGYYQVMLKDENINAELTTTQRNGIHRYQYPAGKDAEIILDMDHSADKGSWGRRIINSQIRILNDHAVEGYRIITGWAKLRKIYFYMEFSSPILTSTLRDGGRVHENTAVINGTNLHGCFRFGQLNGKPLTCKVALSSVSMENARQNMEQEAPHWDFDRYVAAADADWEKQLGKIEVKGTEVQKEIFYTALYHTMIQPNTMSDVNGEYMAADYTTRKVANNETHYTTFSLWDTFRASHPLYTLLEPERVTDFVKSMIRQYEYYGYLPIWQLWGQDNYCMIGNHSIPVITDAILKGIPGIDMEKAYEAVYNSSVTSHPNSPFEVWEKYGFMPENIQTQSVSITLEQAFDDWCVAQLAAKLNKDADYQRFHKRSEYYRNLFHPKTKFFQSKNDKGEWIEPFDPYQYGGNGGHPFTEGNAWQYFWYVPHNIQALMELTGGTKAFEQKLDTFFTSTYKSEQMNHNASGFVGQYAHGNEPSHHVAYLYNFAGQPWKTQKYVSHILNTLYNNTSSGYAGNDDCGQMSAWYVFSAMGFYPVNPADGRYIIGSPLLDECTLKLAGNKEFRIRTIRKSPEDIYIQSVTLNGKKHKDFFITHQDIMNGGTMVFKMGKKPSGWGK
Km [9]: 510 µM
kcat [9]: 56.7 s⁻¹
kcat/Km [10]: 112000 M⁻¹ s⁻¹

B6: Alpha-1,2-mannosidase (BT_2948) (Bacteroides thetaiotaomicron), Q8A3K6 (protein)
chain: MKMKLLILAVLPFLTPINMNSQEEKASWVQYVNPLIGTEVWQSGVAVAGHEDPSGYTFPGVTEPFGMTEWTAHTLESKHAGTLHHRVPYWYKHNYISGFMGTHYPSGAVMFDYGAVELMPVVGQLKCRPEERSSSFTHITEKSKPHFYEVMLDDYQVKAQLSATKTSAILQFTYPQSDSAYVVVDAMPSMFTAGAPGYIHIDPVRKEISGKSIQSARGYRETGYFVVRFDKDFDSFGTFNLNNDYPEVIEEKYLFTQKEGKWVNGLKGIYTQDSKGVGHLRSEKIDPVIDFDWDWYKPADDFSFNDYQVTWSGKLKAPSTGEYTLGIQADDGARLYINGELLIDDWKSHSFSYQPTQKKISLEAGKMYDIKLEYYQHEWSSRIKLSWIRPDKKSSTSLLTGNRHLESSTKIGGYIRFKTGKNEVIKAIVGTSFISVEQARINLEREIGAKSMETISAQTEALWNKELSVIDLPGATEQDKIVFYTALYHSFLLPRSLSEDGKYRSPFDGKVHKGISFTDYSIWDTFRATHPLFVLLKPDFAGDLITGLLHAYDEGGWLPKWPNPGYTNCMMGTHSDAIIADAYVKGVRNFDVEKAKKAVLKNAYEKGNHIAWGRLGIMDYERLGYVPVDKYGESVARTMEFAYDDYCLSRFFAEKGEPDLSDKLGKRSKNFRNVLDKETKMVRARKADGSWSNPEDYDISVWSGFNPKGVYNYKKNYTLFVPHDVPELIRFLGGTDSLAVFMDELFDKDIYYVGDEFVMHAPYMYNLCKRPWMTQKRIYDIVNKYYLPTPSGLPGNDDCGQLSSWYIFSAMGFYPMCPASIEYQLGVPCLPGFVLHLPQNRTFTIKTKNFGKGNCYVRAVYLNGKPHRSSVITHSDIINGGEILFELTDKPAYNWFQ
kcat/Km [11]: 42.7 M⁻¹ s⁻¹
